Experimental data taken from US20200377594A1 (MorphoSys, published 2020).
Residue numbers refer to the chain shown, from its start.

What was measured:
[1] = biological target: T1, recombinant cynomolgus CD3e (22-49)-Fc2(K105-K330) (cynomolgus monkey); test: ELISA, 1 nM antigen coated, IgG titrated, anti-human F(ab')2-AP detection
T1 construct: also called cyCD3e(22-49)_Fc2(K105-K330); cyCD3 epsilon 22-49/Fc

[2] = biological target: T2, recombinant human CD3e (22-49)-Fc2 (K105-K330) (human); test: ELISA, 5 nM antigen coated, IgG titrated, anti-human F(ab')2-AP detection
T2 construct: also called hCD3e(22-49)_Fc2(K105-K330); hCD3 epsilon 22-49/Fc

[3] = biological target: T3, human CD3 expressed on cells (Jurkat cells; human lymphocytes/PBMCs) (human, UniProt P07766 23-207); test: flow cytometry on CD3 positive Jurkat cells, IgG titrated, anti-human F(ab')2-PE detection
T3 construct: on the cells it stands in the CD3/TCR complex; also called human CD3 epsilon; CD3 positive Jurkat cells
T3 sequence (P07766 23-207): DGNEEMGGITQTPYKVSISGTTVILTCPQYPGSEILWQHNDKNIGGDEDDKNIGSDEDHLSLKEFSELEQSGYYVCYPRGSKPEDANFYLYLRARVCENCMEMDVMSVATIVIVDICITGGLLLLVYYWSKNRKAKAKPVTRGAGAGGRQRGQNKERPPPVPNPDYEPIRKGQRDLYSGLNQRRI

[4] = biological target: T4, cynomolgus CD3 expressed on cynomolgus lymphocytes/PBMCs (cynomolgus monkey, UniProt Q95LI5 22-198); test: flow cytometry on cynomolgus PBMCs (lymphocyte gate), detection with anti-human F(ab')2-PE
T4 construct: also called cynomolgus CD3 epsilon
T4 sequence (Q95LI5 22-198): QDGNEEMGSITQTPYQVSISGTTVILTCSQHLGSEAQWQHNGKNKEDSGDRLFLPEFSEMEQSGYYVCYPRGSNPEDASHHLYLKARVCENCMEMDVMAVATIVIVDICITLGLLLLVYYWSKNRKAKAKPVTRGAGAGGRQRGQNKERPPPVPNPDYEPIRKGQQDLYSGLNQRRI

[5] = biological target: Human CD3e (22-118) Flag_chLys_avi (human); test: SPR (Biacore T200), IgG captured on MabSelect SuRe, hCD3e analyte 4.1-999 nM, 1:1 fit; comment: slightly heterogeneous binding
Chain of Human CD3e (22-118) Flag_chLys_avi (human) (chain, as listed by the source limits assumed): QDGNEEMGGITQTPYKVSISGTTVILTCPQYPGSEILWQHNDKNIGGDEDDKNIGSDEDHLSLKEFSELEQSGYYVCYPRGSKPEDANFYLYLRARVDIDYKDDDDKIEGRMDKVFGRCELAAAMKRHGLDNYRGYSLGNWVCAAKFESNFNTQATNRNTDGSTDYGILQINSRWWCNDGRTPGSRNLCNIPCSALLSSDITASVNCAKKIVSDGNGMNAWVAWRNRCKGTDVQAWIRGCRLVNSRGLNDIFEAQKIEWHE

[6] = biological target: Human CD3e (22-118) Flag_chLys_avi (human); test: SPR (Biacore T200), IgG captured on MabSelect SuRe, hCD3e analyte 4.1-999 nM, 1:1 fit; comment: heterogeneous binding
[7] = biological target: Human CD3e (22-118) Flag_chLys_avi (human); test: SPR (Biacore T200), IgG captured on MabSelect SuRe, hCD3e analyte 4.1-999 nM, 1:1 fit
[8] = biological target: Human CD3e (22-118) Flag_chLys_avi (human); test: SPR (Biacore T200), IgG captured on MabSelect SuRe, hCD3e analyte, 1:1 fit; comment: only conc. 37-333 nM used for evaluation
[9] = biological target: Human CD3e (22-118) Flag_chLys_avi (human); test: SPR (Biacore T200), IgG captured on MabSelect SuRe, hCD3e analyte, 1:1 fit; comment: weak binding signals, only 333 nM & 999 nM evaluated

B1: mAb#München (antibody, human IgG1, lambda, V domains shown)
VH: EVQLVESGGGLVKPGGSLRLSCAASGFTFNTYAMNWVRQAPGKGLEWVGRIRSKYNNYATYYADSVKDRFTISRDDSKNTLYLQMNSLKTEDTAVYYCTTHGNFGNSYVSWFAYWGQGTLVTVSS
VL: QTVVTQEPSLTVSPGGTVTLTCRSSTGAVTTSNYANWVQQKPGQAPRGLIGGTKFLAPGTPARFSGSLLGGKAALTLLGAQPEDEAEYYCALWYSNLWVFGGGTKLTVLG
notes: also called Munchen
Question: Which results are given for B1?
Answer: EC50 [1]: 1.43 nM; EC50 [2]: 0.6 nM; EC50 [3]: 6.6 nM; EC50 (read off the curve) [4]: ~20 nM; Kd [5]: 78 nM; koff [5]: 0.00658 s⁻¹; kon [5]: 84000 M⁻¹ s⁻¹

B2: mAb#Bremen (antibody, human IgG1, lambda, V domains shown)
VH: B1 VH
VL: B1 VL with L78S, A80V
Question: Which EC50 [1] does the source give for B2 here?
Answer: The EC50 was 0.8 nM.

Question: What about the EC50 [2] of the same binder?
Answer: The EC50 was 1.1 nM.

Question: What about the EC50 [3] of the same binder?
Answer: The EC50 was 6.3 nM.

Question: What about the “EC50 (read off the curve)” value [4] of the same binder?
Answer: Its value is roughly 20 nM.

Question: And the Kd [6]?
Answer: Its Kd is 74 nM.

Question: What about the koff [6] of the same binder?
Answer: Its koff is 0.00479 s⁻¹.

Question: And the kon [6]?
Answer: The kon was 65000 M⁻¹ s⁻¹.

B3: SP34 (m/h chimeric) IgG (antibody, V domains shown)
VH: EVQLVESGGGLVQPKGSLKLSCAASGFTFNTYAMNWVRQAPGKGLEWVARIRSKYNNYATYYADSVKDRFTISRDDSQSILYLQMNNLKTEDTAMYYCVRHGNFGNSYVSWFAYWGQGTLVTVSS
VL: QAVVTQESALTTSPGETVTLTCRSSTGAVTTSNYANWVQEKPDHLFTGLIGGTNKRAPGVPARFSGSLIGDKAALTITGAQTEDEAIYFCALWYSNLWVFGGGTKLTVLG
notes: Murine SP34 variable domains tested as mouse/human chimeric IgG; also called SP34 IgG (m/h chimera)
Question: How did the EC50 [1] turn out when B3 was run?
Answer: Its EC50 is 0.15 nM.

Question: What about the EC50 [2] of the same binder?
Answer: The EC50 was 0.39 nM.

Question: And the Kd [7]?
Answer: The Kd was 1.7 nM.

Question: What about the koff [7] of the same binder?
Answer: Its koff is 0.000835 s⁻¹.

Question: And the kon [7]?
Answer: The kon was 487000 M⁻¹ s⁻¹.

Question: And the EC50 [3]?
Answer: Its EC50 is 1.4 nM.

Question: What about the “EC50 (read off the curve)” value [4] of the same binder?
Answer: Its value is roughly 3 nM.

B4: mAb#Nürnberg (antibody, human IgG1, lambda)
heavy: not shown
light: QTVVTQEPSLTVSPGGTVTLTCRSSTGAVTTSNYANWVQQKPGQAPRGLIGGTNKRAPGTPARFSGSLLGGKAALTLSGVQPEDEAEYYCALWYSNLWVFGGGTKLTVLGQPKAAPSVTLFPPSSEELQANKATLVCLISDFYPGAVTVAWKADSSPVKAGVETTTPSKQSNNKYAASSYLSLTPEQWKSHRSYSCQVTHEGSTVEKTVAPTECS
Question: B4 was tested. Which EC50 [1] did it give?
Answer: The EC50 was 0.21 nM.

Question: And the EC50 [2]?
Answer: The EC50 was 0.34 nM.

Question: And the EC50 [3]?
Answer: Its EC50 is 1 nM.

Question: What about the Kd [8] of the same binder?
Answer: The Kd was 48 nM.

Question: What about the koff [8] of the same binder?
Answer: Its koff is 0.00387 s⁻¹.

Question: What about the kon [8] of the same binder?
Answer: Its kon is 80000 M⁻¹ s⁻¹.

B5: mAb#Mainz (antibody, human IgG1, lambda, V domains shown)
VH: B1 VH with E1Q, V37I, G49S, D76N, S77A, T80S, K89R, T90A, T99V, T100R
VL: B1 VL with T2A, K54N, F55K, L56R, G59W, L77I, L78T, P82A, E87D
Question: For B5, which EC50 [1] is on record?
Answer: Its EC50 is 1.53 nM.

Question: And the EC50 [2]?
Answer: The EC50 was 1.21 nM.

Question: What about the EC50 [3] of the same binder?
Answer: The EC50 was 9.4 nM.

Question: And the Kd [9]?
Answer: The Kd was 600 nM.

Question: What about the koff [9] of the same binder?
Answer: Its koff is 0.00847 s⁻¹.

Question: What about the kon [9] of the same binder?
Answer: Its kon is 14200 M⁻¹ s⁻¹.

B6: mAb#Köln (antibody, human IgG1, lambda)
heavy: not shown
light: B4 light with Q1E, T2L
Question: What does the source list for B6?
Answer: EC50 [1]: 0.2 nM; EC50 [2]: 0.31 nM; EC50 [3]: 1.8 nM; Kd [5]: 51 nM; koff [5]: 0.00386 s⁻¹; kon [5]: 76200 M⁻¹ s⁻¹

B7: mAb#Gladbach (antibody, human IgG1, lambda, V domains shown)
VH: B1 VH with E1Q, V37I, G49S, D76N, S77A, T80S, K89R, T90A, T99V, T100R
VL: B1 VL with L78S, A80V
Question: B7 was tested. Which EC50 [1] did it give?
Answer: The EC50 was 0.21 nM.

Question: What about the EC50 [2] of the same binder?
Answer: Its EC50 is 0.38 nM.

Question: What about the EC50 [3] of the same binder?
Answer: The EC50 was 1.4 nM.

Question: What about the “EC50 (read off the curve)” value [4] of the same binder?
Answer: The value was roughly 6 nM.

Question: And the Kd [5]?
Answer: The Kd was 54 nM.

Question: What about the koff [5] of the same binder?
Answer: Its koff is 0.00385 s⁻¹.

Question: And the kon [5]?
Answer: Its kon is 71800 M⁻¹ s⁻¹.

B8: mAb#Freiburg (antibody, human IgG1, lambda, V domains shown)
VH: B1 VH
VL: B1 VL with K54N, F55K, L56R
Question: Which EC50 [1] does the source give for B8 here?
Answer: Its EC50 is 1.26 nM.

Question: What about the EC50 [2] of the same binder?
Answer: Its EC50 is 0.91 nM.

Question: And the EC50 [3]?
Answer: The EC50 was 10.7 nM.

Question: What about the “EC50 (read off the curve)” value [4] of the same binder?
Answer: Its value is roughly 10 nM.

Question: And the Kd [6]?
Answer: The Kd was 130 nM.

Question: And the koff [6]?
Answer: The koff was 0.00467 s⁻¹.

Question: And the kon [6]?
Answer: The kon was 35200 M⁻¹ s⁻¹.
